This note sets out measurements from paper PMC4569319 (Molecular Biology of the Cell, 2015).

The experiment concerns the target Murine ΔIBB-importin α1 (mouse, UniProt P52293 70-529). Description: crystal structure.

Take LKEKKKRTVAEEDQLHLDGQENKRRRHDSS [Pom121NLS(291-320), GST cleaved off]: the binding result is listed as “binds”.
